Experimental data reported in the supplement of paper PMC10567573.

B1: BTBD10 (parent)
chain: DRKLHSRPRKLYKHSSTSSRIAKG

Variants of: B1
Experiment: protein stability index of a GFP-peptide fusion (GPS, HEK-293T) (PSI 1-6); higher = more stable
Details: c terminus: a fixed tail appended
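Further: lentivirally expressed fusions sorted by FACS into six bins by GFP to DsRed ratio, PSI derived from sequencing read proportions per bin multiplied by bin number.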

Protein stability index: each site, then its substitutions
H14: A 4.27, S 3.66, P 3.54, E 4.13, D 3.58, T 4.19, N 4.43, Q 3.79, L 3.4, R 4.05, Y 2.79, W 3.61, C 4.41, I 3.88, K 3.64, F 4.44, M 3.67
A22: L 3.03, H 3.58, I 3.58, N 3.34, R 4.5, Q 4.15, V 3.71, T 3.55, E 3.67, K 3.68, C 3.11, Y 3.7, D 4.01, S 4.15, G 3.91, M 3.44, P 3.99, W 3.47, F 2.99
K10: P 3.25, L 3.77, E 2.8, M 3.24, H 4.07, S 4.09, G 3.52, Y 3.94, C 3.55, F 3.18, Q 4.08, N 4.07, D 4.21, T 3.58, R 3.97, V 3.72, W 3.33, A 3.67, I 2.62
G24: S 3.65, Q 3.92, H 3.35, W 2.65, R 4, A 3.61, M 3.38, I 3.21, E 4.5, C 3.3, L 3.28, V 3.74, F 3.19, P 4.05, D 3.65, Y 3.33, T 4, N 4.3, K 4.14
K13: L 2.84, S 3.52, D 4.23, F 2.77, M 2.84, R 3.74, N 3.61, T 4, H 3.65, C 3.68, Q 4.12, E 4.47, I 2.68, P 3.86, Y 3.6, W 3.55, A 4.04, V 3.69, G 4.42
S15: Y 3.67, H 3.25, R 4.12, P 4.05, A 4.23, I 3.43, M 3.1, T 4.17, D 4.22, K 3.59, F 3, C 3.89, W 3.1, V 3.88, G 4.49, L 3.71, Q 3.85, N 3.66, E 4.06
Y12: W 4.1, H 3.78, K 4.72, S 4.65, G 4.65, T 4.05, N 4.12, D 4.27, I 3.3, F 4.01, V 4.08, M 3.11, C 3.84, L 3.88, P 4.15, Q 4.01, E 4.28, A 4.54, R 4.21
L11: P 3.79, C 2.99, R 4.42, M 4.67, G 4.16, D 3.71, A 4.08, E 4.49, V 3.82, W 3.67, H 3.93, Q 4.13, F 4.91, I 3.61, N 3.46, K 4.19, S 4.57, Y 3.7
